T1: FcgRIIa R (human, UniProt P12318 34-217)
T1 construct: extracellular domain; also called FcγRIIa R; FcγRIIa type R
T1 sequence (looked up): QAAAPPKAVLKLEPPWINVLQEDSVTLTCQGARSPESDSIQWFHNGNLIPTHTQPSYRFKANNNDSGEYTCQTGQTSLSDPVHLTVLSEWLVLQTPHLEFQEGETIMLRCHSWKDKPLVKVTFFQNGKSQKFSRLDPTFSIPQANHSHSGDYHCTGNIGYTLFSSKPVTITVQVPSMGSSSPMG

T2: FcgRIIa H (human, UniProt P12318 34-217)
T2 construct: extracellular domain; also called FcγRIIa H; FcγRIIa type H
T2 sequence (looked up): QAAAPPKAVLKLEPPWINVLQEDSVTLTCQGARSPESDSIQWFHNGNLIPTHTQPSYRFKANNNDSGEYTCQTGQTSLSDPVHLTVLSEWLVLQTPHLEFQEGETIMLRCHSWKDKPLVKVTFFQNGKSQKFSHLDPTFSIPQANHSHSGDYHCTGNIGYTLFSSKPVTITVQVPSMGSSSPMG

T3: FcgRIIb (human, UniProt P31994 43-217)
T3 construct: extracellular domain; Soluble extracellular domain with C-terminal His tag, expressed in FreeStyle293 cells; also called FcγRIIb; 2b; not shown: His tag at the C terminus
T3 sequence (looked up): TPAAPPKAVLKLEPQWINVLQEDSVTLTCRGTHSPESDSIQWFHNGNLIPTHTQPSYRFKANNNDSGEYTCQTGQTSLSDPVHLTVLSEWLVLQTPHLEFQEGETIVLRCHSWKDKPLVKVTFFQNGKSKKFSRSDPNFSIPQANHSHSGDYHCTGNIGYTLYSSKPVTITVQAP

T4: FcgRIIaR (human, UniProt P12318 34-217)
T4 construct: extracellular domain; Soluble extracellular domain with C-terminal His tag, expressed in FreeStyle293 cells; also called FcγRIIa R; FcgRIIa type R; not shown: His tag at the C terminus
T4 sequence (looked up): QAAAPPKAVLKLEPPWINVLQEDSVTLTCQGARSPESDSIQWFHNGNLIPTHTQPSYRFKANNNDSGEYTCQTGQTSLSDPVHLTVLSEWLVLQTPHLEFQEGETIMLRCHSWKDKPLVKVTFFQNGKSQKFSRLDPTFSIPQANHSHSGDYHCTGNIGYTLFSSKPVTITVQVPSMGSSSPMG

T5: FcgRIIaH (human, UniProt P12318 34-217)
T5 construct: extracellular domain; Soluble extracellular domain with C-terminal His tag, expressed in FreeStyle293 cells; also called FcγRIIa H; FcgRIIa type H; not shown: His tag at the C terminus
T5 sequence (looked up): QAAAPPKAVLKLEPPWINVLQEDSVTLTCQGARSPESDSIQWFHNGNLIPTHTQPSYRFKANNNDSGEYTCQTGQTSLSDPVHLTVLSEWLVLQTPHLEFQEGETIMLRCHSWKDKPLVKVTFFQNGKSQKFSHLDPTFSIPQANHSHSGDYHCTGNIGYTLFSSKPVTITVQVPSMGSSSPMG


Key:
[1] = molecular target: T1, FcgRIIa R; experiment: SPR (Biacore), antibody captured, FcgR as analyte
Description: (§1) Then, H240-Hl136 (SEQ ID NO: 97) resulting from introduction of L234Y/L235Y/G236W/H268D/S298A/A327D into H240-Hl033 and H240-Kn133 (SEQ ID NO: 98) resulting from introduction of D270E/K326D/A330K/K334E into H240-Kn033 were constructed according to the method described in Reference Example 1.
(§2) Analysis of interaction between objective antibody and the FcγR was carried out using Biacore T100 (GE Healthcare), Biacore T200, Biacore A100, and Biacore 4000. HBS-EP+ (GE Healthcare) was used as the running buffer, and the measurement temperature was set to 25° C. Chips produced by immobilizing the antigen peptide by the amine coupling method to a Series S sensor Chip CM5 (GE Healthcare), chips produced by allowing preliminarily biotinylated antigen peptides to interact with and immobilize onto a Series S Sensor Chip SA (certified) (GE Healthcare), chips produced by immobilizing Protein L (ACTIGEN, BioVision) to Series S Sencor Chip CM5 (GE Healthcare), or chips produced by immobilizing Protein A/G (Thermo Scientific) to Series S Sencor Chip CM5 (GE Healthcare) were used. Antibodies of interest were captured onto these chips, and allowed to interact to each FcγR diluted with running buffer.

[2] = molecular target: T2, FcgRIIa H; experiment: SPR (Biacore), antibody captured, FcgR as analyte
Description: as §1, §2

[3] = molecular target: T6, FcgRIIIa F (human, UniProt P08637 17-208); experiment: SPR (Biacore), antibody captured, FcgR as analyte
T6 construct: extracellular domain; polymorphic site made after J. Clin. Invest; also called FcγRIIIa F
Description: as §1, §2

[4] = molecular target: T7, FcgRIIIa V (human, UniProt P08637 17-208); experiment: SPR (Biacore), antibody captured, FcgR as analyte
T7 construct: extracellular domain; polymorphic site made after J. Clin. Invest; also called FcγRIIIa V
Description: as §1, §2

[5] = molecular target: T3, FcgRIIb; experiment: SPR (Biacore); KD of the variant for FcgRIIaR divided by its KD for FcgRIIb
[6] = molecular target: T3, FcgRIIb; experiment: SPR (Biacore), antibody captured on chip, FcgR extracellular domain as analyte
[7] = molecular target: T4, FcgRIIaR; experiment: as above
[8] = molecular target: T5, FcgRIIaH; experiment: as above

T6 sequence (P08637 17-208): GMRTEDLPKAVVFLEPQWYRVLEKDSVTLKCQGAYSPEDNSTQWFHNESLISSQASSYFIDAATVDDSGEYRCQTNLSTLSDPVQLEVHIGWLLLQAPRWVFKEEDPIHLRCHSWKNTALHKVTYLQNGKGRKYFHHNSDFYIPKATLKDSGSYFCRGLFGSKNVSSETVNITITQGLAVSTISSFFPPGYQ
T7 sequence (P08637 17-208 F176V limits assumed): as the sequence (P08637 17-208) above, with F160V counted along it

Binder	Kd [1] [nM]	Kd [2] [nM]	Kd [3] [nM]	Kd [4] [nM]	KD(IIaR)/KD(IIb) [5]	Relative KD (KD of IL6R-B3/IL6R-L divided by KD of the variant) [6]	Relative KD (KD of IL6R-B3/IL6R-L divided by KD of the variant) [7]	Relative KD (KD of IL6R-B3/IL6R-L divided by KD of the variant) [8]
H240-Kn067/H240-Hl136/L73-k0 (antibody, human IgG1, kappa, Called homodimerized: both H chains have L234Y/L235Y/G236W/H268D/S298A/A327D) heavy 1: QDQLVQSGAEVKKPGASVKVSCKASGFNIKDTYIQWVRQAPGQGLEWMGRIDPLRKQTKYREKFEGRVTITADTSTNTAYMELSSLRSEDTAVYYCVRSGREFDYWGQGTLVTVSSASTKGPSVFPLAPSSKSTSGGTAALGCLVKDYFPEPVTVSWNSGALTSGVHTFPAVLQSSGLYSLSSVVTVPSSSLGTQTYICNVNHKPSNTKVDKKVEPKSCDKTHTCPPCPAPEYYWGPSVFLFPPKPKDTLMISRTPEVTCVVVDVSDEDPEVKFNWYVDGVEVHNAKTKPREEQYNATYRVVSVLTVLHQDWLNGKEYKCKVSNKDLPAPIEKTISKAKGQPREPQVCTLPPSRDELTKNQVSLWCLVKGFYPSDIAVEWESNGQPENNYKTTPPVLDSDGSFFLYSKLTVDKSRWQQGNVFSCSVMHEALHNHYTQKSLSLSP heavy 2: QDQLVQSGAEVKKPGASVKVSCKASGFNIKDTYIQWVRQAPGQGLEWMGRIDPLRKQTKYREKFEGRVTITADTSTNTAYMELSSLRSEDTAVYYCVRSGREFDYWGQGTLVTVSSASTKGPSVFPLAPSSKSTSGGTAALGCLVKDYFPEPVTVSWNSGALTSGVHTFPAVLQSSGLYSLSSVVTVPSSSLGTQTYICNVNHKPSNTKVDKKVEPKSCDKTHTCPPCPAPEYYWGPSVFLFPPKPKDTLMISRTPEVTCVVVDVSDEDPEVKFNWYVDGVEVHNAKTKPREEQYNATYRVVSVLTVLHQDWLNGKEYKCKVSNKDLPAPIEKTISKAKGQPREPQVYTLPPSRCELTKNQVSLSCAVKGFYPSDIAVEWESNGQPENNYKTTPPVLDSDGSFFLVSKLTVDKSRWQQGNVFSCSVMHEALHNHYTQKSLSLSP light: DIQMTQSPSSLSASVGDRVTITCRASQDIHKYIAWYQQKPGQAPRLLIQYTSTLQPGVPSRFSGSGSGTDYTFTISSLQPEDIATYYCLQYEQLRTFGGGTKVEIKRTVAAPSVFIFPPSDEQLKSGTASVVCLLNNFYPREAKVQWKVDNALQSGNSQESVTEQDSKDSTYSLSSTLTLSKADYEKHKVYACEVTHQGLSSPVTKSFNRGEC	950	2100	960	340	–	–	–	–
H240-Kn133/H240-Hl068/L73-k0 (antibody, human IgG1, kappa, Called homodimerized: both H chains have D270E/K326D/A330K/K334E) heavy 1: QDQLVQSGAEVKKPGASVKVSCKASGFNIKDTYIQWVRQAPGQGLEWMGRIDPLRKQTKYREKFEGRVTITADTSTNTAYMELSSLRSEDTAVYYCVRSGREFDYWGQGTLVTVSSASTKGPSVFPLAPSSKSTSGGTAALGCLVKDYFPEPVTVSWNSGALTSGVHTFPAVLQSSGLYSLSSVVTVPSSSLGTQTYICNVNHKPSNTKVDKKVEPKSCDKTHTCPPCPAPELLGGPSVFLFPPKPKDTLMISRTPEVTCVVVDVSHEEPEVKFNWYVDGVEVHNAKTKPREEQYNSTYRVVSVLTVLHQDWLNGKEYKCKVSNDALPKPIEETISKAKGQPREPQVCTLPPSRDELTKNQVSLWCLVKGFYPSDIAVEWESNGQPENNYKTTPPVLDSDGSFFLYSKLTVDKSRWQQGNVFSCSVMHEALHNHYTQKSLSLSP heavy 2: QDQLVQSGAEVKKPGASVKVSCKASGFNIKDTYIQWVRQAPGQGLEWMGRIDPLRKQTKYREKFEGRVTITADTSTNTAYMELSSLRSEDTAVYYCVRSGREFDYWGQGTLVTVSSASTKGPSVFPLAPSSKSTSGGTAALGCLVKDYFPEPVTVSWNSGALTSGVHTFPAVLQSSGLYSLSSVVTVPSSSLGTQTYICNVNHKPSNTKVDKKVEPKSCDKTHTCPPCPAPELLGGPSVFLFPPKPKDTLMISRTPEVTCVVVDVSHEEPEVKFNWYVDGVEVHNAKTKPREEQYNSTYRVVSVLTVLHQDWLNGKEYKCKVSNDALPKPIEETISKAKGQPREPQVYTLPPSRCELTKNQVSLSCAVKGFYPSDIAVEWESNGQPENNYKTTPPVLDSDGSFFLVSKLTVDKSRWQQGNVFSCSVMHEALHNHYTQKSLSLSP light: DIQMTQSPSSLSASVGDRVTITCRASQDIHKYIAWYQQKPGQAPRLLIQYTSTLQPGVPSRFSGSGSGTDYTFTISSLQPEDIATYYCLQYEQLRTFGGGTKVEIKRTVAAPSVFIFPPSDEQLKSGTASVVCLLNNFYPREAKVQWKVDNALQSGNSQESVTEQDSKDSTYSLSSTLTLSKADYEKHKVYACEVTHQGLSSPVTKSFNRGEC	450	160	120	14	–	–	–	–
IL6R-BP253/IL6R-L (antibody, human IgG1, kappa, Homodimerized antibody) heavy: QVQLQESGPGLVKPSETLSLTCAVSGHSISHDHAWSWVRQPPGEGLEWIGFISYSGITNYNPSLQGRVTISRDNSKNTLYLQMNSLRAEDTAVYYCARSLARTTAMDYWGEGTLVTVSSASTKGPSVFPLAPSSKSTSGGTAALGCLVKDYFPEPVTVSWNSGALTSGVHTFPAVLQSSGLYSLSSVVTVPSSSLGTQTYICNVNHKPSNTKVDKKVEPKSCDKTHTCPPCPAPELLGGPSVFLFPPKPKDTLMISRTPEVTCVVVDVEHEDPEVKFNWYVDGVEVHNAKTKPREEQYNSTYRVVSVLTVLHQDWLNGKEYKCKVSNKAFPAPIEKTISKAKGQPREPQVYTLPPSRDELTKNQVSLTCLVKGFYPSDIAVEWESNGQPENNYKTTPPVLDSDGSFFLYSKLTVDKSRWQQGNVFSCSVMHEALHNHYTQESLSLSP light: not shown	–	–	–	–	0.3	349	480	0.9
IL6R-AP002/IL6R-BP256/IL6R-L (antibody, human IgG1, kappa, Heterodimerized antibody (two different H chains, same variable region), S239D in one H chain only) heavy 1: QVQLQESGPGLVKPSETLSLTCAVSGHSISHDHAWSWVRQPPGEGLEWIGFISYSGITNYNPSLQGRVTISRDNSKNTLYLQMNSLRAEDTAVYYCARSLARTTAMDYWGEGTLVTVSSASTKGPSVFPLAPSSKSTSGGTAALGCLVKDYFPEPVTVSWNSGALTSGVHTFPAVLQSSGLYSLSSVVTVPSSSLGTQTYICNVNHKPSNTKVDKKVEPKSCDKTHTCPPCPAPDLLGDDSVFLFPPKPKDTLMISRTPEVTCVVVDVSDEDGEVKFNWYVDGVEVHNAKTKPREEQYNSTYRVVSVLTVLHQDWLNGKEYKCKVSNKALPRPIEKTISKAKGQPREPQVYTLPPSRKELTKNQVSLTCLVKGFYPSDIAVEWESNGQPENNYKTTPPVLDSDGSFFLYSKLTVDKSRWQQGNVFSCSVMHEALHNRYTQKSLSLSP heavy 2: QVQLQESGPGLVKPSETLSLTCAVSGHSISHDHAWSWVRQPPGEGLEWIGFISYSGITNYNPSLQGRVTISRDNSKNTLYLQMNSLRAEDTAVYYCARSLARTTAMDYWGEGTLVTVSSASTKGPSVFPLAPSSKSTSGGTAALGCLVKDYFPEPVTVSWNSGALTSGVHTFPAVLQSSGLYSLSSVVTVPSSSLGTQTYICNVNHKPSNTKVDKKVEPKSCDKTHTCPPCPAPDLLGDDDVFLFPPKPKDTLMISRTPEVTCVVVDVSDEDGEVKFNWYVDGVEVHNAKTKPREEQYNSTYRVVSVLTVLHQDWLNGKEYKCKVSNKALPRPIEKTISKAKGQPREPQVYTLPPSRDELTKNQVSLTCLVKGFYPSDIAVEWESNGQPENNYKTTPPVLDSDGSFFLYSKLTVDKSRWQQGNVFSCSVMHEALHNHYTQESLSLSP light: not shown	–	–	–	–	34.3	752	7.7	0.2
